Data published in patent US20220403023A1 (WUXI BIOLOGICS IRELAND, published 2022).

Tests used:
[1] = target: T1, human CD47 on engineered CHO-K1 cells (human, UniProt Q08722 19-323); assay: competition FACS: CHO-K1 cells expressing human CD47, antibody titrated together with human SIRPα-His (1 µg/mL), bound SIRPα detected with anti-His-biotin and streptavidin-PE
T1 construct: whole, on cells; also called human CD47-expressing cells
Description: At the end, the cells were re-suspended in 100 μL 1% BSA-PBS, and the fluorescence intensity was measured by FACS (BD Canto II) and analyzed by FlowJo Version software. The competitive binding IC50s were calculated by using GraphPad Prism software equation: Nonlinear regression (curve fit)—log (antagonist) vs. response—Variable slope.

human CD47 ECD protein [2] = target: T2, human CD47 ECD protein (human, UniProt Q08722 19-139, limits assumed); assay: ELISA on plate-coated human CD47 ECD (1 µg/mL), goat anti-human IgG-Fc-HRP, OD450
T2 construct: extracellular domain; The assays say only 'human CD47 ECD protein' / 'Human CD47 protein'; 55 kDa was used as molecular weight in SPR; also called human CD47 protein; W345-hPro1.ECD (sino)
Description: Then the Goat anti-human IgG-Fc-HRP secondary antibody was added and incubated for 1 hr. […] All incubation steps were performed at room temperature, and the plates were washed 5 times with PBST at pH 7.4 between steps.

human CD47 ECD protein [3] = target: T2, human CD47 ECD protein; assay: SPR Biacore T200, antibody captured on anti-human IgG Fc chip, human CD47 as analyte, 1:1 model
Description: Each antibody was captured on an anti-human IgG Fc antibody immobilized CMS sensor chip (GE). Human CD47 protein at different concentrations were injected over the sensor chip at a flow rate of 30 uL/min for an association phase of 180 s, followed by 3600 s dissociation. The chip was regenerated by 10 mM glycine (pH 1.5) after each binding cycle. The sensorgrams of blank surface and buffer channel were subtracted from the test sensorgrams. The experimental data was fitted by 1:1 model using Langmiur analysis. Molecular weight of 55 kDa was used to calculate the molar concentration of analyte antigen.

[4] = target: T1, human CD47 on engineered CHO-K1 cells; assay: FACS on CHO-K1 cells expressing human CD47 (CHOK1-huCD47), goat anti-human IgG-Fc PE
Description: (§1) Briefly, the engineered CD47-expressing cells were coated into 96-well U-bottom plates at a density of 1×10⁵ cells/well and centrifuged at 1500 rpm at 4° C. for 4 min before removing the supernatant. […] The cells were washed twice with 180 μL 1% BSA-PBS. The secondary antibody, Goat Anti-human IgG-Fc PE was added to re-suspend cells and incubated at 4° C. in the dark for 30 min followed by washing with 180 μL 1% BSA-PBS. At the end, the cells were re-suspended in 100 μL 1% BSA-PBS, and the fluorescence intensity was measured by FACS (BD Canto II) and analyzed by FlowJo Version software. The binding EC50s were calculated by using GraphPad Prism software equation: Nonlinear regression (curve fit)—log (agonist) vs. response—Variable slope.

[5] = target: T3, cynomolgus monkey CD47 on engineered CHO-K1 cells (cynomolgus monkey, UniProt A0A5F8AK49 19-323 (rhesus entry)); assay: FACS on CHO-K1 cells expressing cynomolgus CD47 (CHOK1-cynoCD47), goat anti-human IgG-Fc PE
T3 construct: whole, on cells; also called cyno CD47 expressing cells; cynomolgus monkey CD47-expressing cells
Description: as §1

human CD47 ECD protein [6] = target: T2, human CD47 ECD protein; assay: competition ELISA: plate-coated human CD47 ECD (1 µg/mL), antibody titrated together with human SIRPα-His (1 µg/mL), bound SIRPα detected with anti-His-HRP
Description: 96-well plates were coated with human CD47 ECD at 1 μg/mL at 4° C. overnight and blocked with 2% BSA-PBS for 1 hr. […] The TMB peroxidase substrate solution was added and then reaction was stopped after 12 minutes using 2M HCl. All incubation steps were performed at room temperature, and the plates were washed with PBST between steps. The absorbance of the testing samples was measured at 450 nm with a multiwall plate reader. The competitive binding IC50s were calculated by using GraphPad Prism software equation: Nonlinear regression (curve fit)—log (antagonist) vs. response—Variable slope.

VEGFR2.his = assay: non-specific binding ELISA, protein coated 1 µg/mL, lead antibody at 10 ug/ml
VEGFR2.his, sequence (P35968 20-764): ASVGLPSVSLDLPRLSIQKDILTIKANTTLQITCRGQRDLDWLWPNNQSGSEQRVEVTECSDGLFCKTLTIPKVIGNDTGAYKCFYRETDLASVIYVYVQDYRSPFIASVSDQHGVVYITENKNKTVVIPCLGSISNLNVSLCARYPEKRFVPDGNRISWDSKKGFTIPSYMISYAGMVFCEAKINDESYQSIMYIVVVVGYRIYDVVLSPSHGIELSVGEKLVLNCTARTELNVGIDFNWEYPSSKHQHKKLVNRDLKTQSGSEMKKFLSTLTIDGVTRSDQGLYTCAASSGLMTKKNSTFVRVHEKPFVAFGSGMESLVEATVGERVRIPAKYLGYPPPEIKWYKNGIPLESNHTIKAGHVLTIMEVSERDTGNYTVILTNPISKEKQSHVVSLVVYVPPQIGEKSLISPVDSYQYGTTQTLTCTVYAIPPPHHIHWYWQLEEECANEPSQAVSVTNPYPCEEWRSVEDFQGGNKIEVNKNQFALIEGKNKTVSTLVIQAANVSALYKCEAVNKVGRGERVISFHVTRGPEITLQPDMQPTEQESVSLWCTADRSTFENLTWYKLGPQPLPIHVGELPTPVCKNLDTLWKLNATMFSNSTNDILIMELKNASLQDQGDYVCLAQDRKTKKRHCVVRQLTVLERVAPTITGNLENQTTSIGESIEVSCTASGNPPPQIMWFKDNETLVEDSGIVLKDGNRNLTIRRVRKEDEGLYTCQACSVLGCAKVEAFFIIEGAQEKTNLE
Description: (§2) The 96-well high binding plates were coated with 14 different proteins at 1 μg/mL at 4° C. overnight and blocked with 2% BSA-PBS for 1 hr. […] Then the Goat anti-human IgG-Fc-HRP secondary antibody was added and incubated for 1 hr. The TMB peroxidase substrate solution was added and then reaction was stopped after 12 minutes using 2M HCl. All incubation steps were performed at room temperature, and the plates were washed 5 times with PBST at pH 7.4 between steps. The absorbance of testing samples was measured at 450 nm with a multiwall plate reader (SpectraMax® M5e).

Factor Eight = assay: as above
Description: as §2

4-1B8.his = assay: as above
4-1B8.his, sequence (Q07011 24-186): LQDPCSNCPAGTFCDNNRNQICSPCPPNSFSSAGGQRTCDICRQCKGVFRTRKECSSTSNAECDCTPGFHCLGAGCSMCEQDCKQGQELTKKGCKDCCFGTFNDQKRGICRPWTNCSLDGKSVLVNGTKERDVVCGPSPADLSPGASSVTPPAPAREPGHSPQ
Description: as §2

CTLA4.his = assay: as above
CTLA4.his, sequence (P16410 36-161): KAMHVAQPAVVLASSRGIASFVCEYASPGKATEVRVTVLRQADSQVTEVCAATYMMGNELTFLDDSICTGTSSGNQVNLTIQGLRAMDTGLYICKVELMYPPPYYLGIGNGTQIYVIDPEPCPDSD
Description: as §2

CD147.his = assay: as above
Description: as §2

PD-1.his [7] = target: T4, PD-1.his (Homo sapiens (Human), UniProt Q15116 25-170); assay: as above
T4 sequence (Q15116 25-170 limits assumed): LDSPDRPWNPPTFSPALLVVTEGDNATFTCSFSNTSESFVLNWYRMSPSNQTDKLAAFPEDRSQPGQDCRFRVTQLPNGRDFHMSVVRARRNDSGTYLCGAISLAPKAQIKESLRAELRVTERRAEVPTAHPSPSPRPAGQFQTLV
Description: as §2

VEGF.his = assay: as above
VEGF.his, sequence (P15692 whole entry): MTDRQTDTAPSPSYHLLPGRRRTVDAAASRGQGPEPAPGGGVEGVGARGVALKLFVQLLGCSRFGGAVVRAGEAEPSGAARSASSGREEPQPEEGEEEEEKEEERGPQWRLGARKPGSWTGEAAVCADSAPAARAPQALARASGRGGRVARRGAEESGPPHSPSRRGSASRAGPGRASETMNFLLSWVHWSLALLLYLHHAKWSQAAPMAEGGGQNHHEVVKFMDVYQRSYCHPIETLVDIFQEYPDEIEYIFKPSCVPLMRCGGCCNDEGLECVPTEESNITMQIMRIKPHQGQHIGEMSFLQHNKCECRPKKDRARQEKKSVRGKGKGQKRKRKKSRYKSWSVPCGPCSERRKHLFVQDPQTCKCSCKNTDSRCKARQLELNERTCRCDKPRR
Description: as §2

CD40.his = assay: as above
CD40.his, sequence (P25942 21-193): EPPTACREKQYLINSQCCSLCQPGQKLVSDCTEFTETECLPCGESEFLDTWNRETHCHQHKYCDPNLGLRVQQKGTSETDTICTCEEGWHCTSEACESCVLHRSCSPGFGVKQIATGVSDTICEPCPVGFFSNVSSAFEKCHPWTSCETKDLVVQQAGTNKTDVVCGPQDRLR
Description: as §2

HER3.his [8] = target: T5, HER3.his (Homo sapiens (Human), UniProt P21860 20-643); assay: as above
Description: as §2

FGFR.his = assay: as above
Description: as §2

OX40.his = assay: as above
OX40.his, sequence (P43489 29-214): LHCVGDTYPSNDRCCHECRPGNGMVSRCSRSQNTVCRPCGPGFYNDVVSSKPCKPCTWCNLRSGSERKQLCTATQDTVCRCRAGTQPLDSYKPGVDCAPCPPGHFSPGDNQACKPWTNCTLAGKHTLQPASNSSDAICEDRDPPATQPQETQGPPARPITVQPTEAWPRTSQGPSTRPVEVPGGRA
Description: as §2

CD3.his = assay: as above
Description: as §2

HSA. [9] = target: T6, HSA. (UniProt P02768 25-609); assay: as above
Description: as §2

CD22.his = assay: as above
Description: as §2

PD-1.his [10] = target: T4, PD-1.his; assay: ELISA, protein coated at 1 µg/mL
HER3.his [11] = target: T5, HER3.his; assay: ELISA, protein coated at 1 µg/mL
HSA. [12] = target: T6, HSA.; assay: ELISA, protein coated at 1 µg/mL
[13] = target: T7, CD47 on human red blood cells (human, UniProt Q08722 19-323); assay: FACS on human red blood cells, goat anti-human IgG-Fc PE
T7 construct: whole, on cells; also called human RBCs; hRBC
Description: The cells were washed twice with 180 μL 1% BSA-PBS. The secondary antibody, Goat Anti-human IgG-Fc PE was added to re-suspend cells and incubated at 4° C. in the dark for 30 min followed by washing with 180 μL 1% BSA-PBS. At the end, the cells were re-suspended in 100 μL 1% BSA-PBS, and the fluorescence intensity was measured by FACS (BD Canto II) and analyzed by FlowJo Version software. The binding EC50s were calculated by using GraphPad Prism software equation: Nonlinear regression (curve fit)—log (agonist) vs. response—Variable slope.

B1: W3455-4.9.9-uIgG4.SPL (antibody, V domains shown)
VH: EVQLLESGGGLVQPGGSLRLSCAASGFTFSNFAMSWVRQAPGKGLEWVSTISASGGRTFYADSVKGRITISRDNSKNTLFLQMNGLRAEDTAVYYCAKEGSFGEGVDPWGQGTLVTVSS
VL: SYEMTQPPSVSVSPGQTARITCSGDALPKKYAYWYQQKSGQAPVLVIYEDNKRPSGIPERFSGSSSGTMATLTISGAQVEDEADYYCYSTDISGNHWVFGGGTELTVLG
notes: Fully human anti-CD47 antibody; also called W3455 antibody; WBP3455-4.9.9-uIgG4.SPL
Binder B1 has an IC50 [1] of 20.1 nM, an EC50 (human CD47 ECD protein [2]) of 0.038 nM and a Kd (human CD47 ECD protein [3]) of 0.0223 nM. For the same binder, the koff (human CD47 ECD protein [3]) was 2.34e-05 s⁻¹, the kon (human CD47 ECD protein [3]) was 1.05e+06 M⁻¹ s⁻¹ and the EC50 [4] was 2.99 nM. It also gave an EC50 [5] of 2.71 nM, an IC50 (human CD47 ECD protein [6]) of 3.21 nM and an ELISA-OD450 (VEGFR2.his) of 0.0452. The ELISA-OD450 (Factor Eight) was 0.0498, the ELISA-OD450 (4-1B8.his) was 0.0551 and the ELISA-OD450 (CTLA4.his) was 0.0573. It also gave an ELISA-OD450 (CD147.his) of 0.0463, an ELISA-OD450 (PD-1.his [7]) of 0.227 and an ELISA-OD450 (VEGF.his) of 0.0475. It also gave an ELISA-OD450 (CD40.his) of 0.209, an ELISA-OD450 (HER3.his [8]) of 0.0462 and an ELISA-OD450 (FGFR.his) of 0.138. It also gave an ELISA-OD450 (OX40.his) of 0.0487, an ELISA-OD450 (CD3.his) of 0.0527 and an ELISA-OD450 (HSA. [9]) of 0.324. The ELISA-OD450 (CD22.his) was 0.0478, the binding result (PD-1.his [10]) was “no binding (tested: 10 ug/ml)” and the binding result (HER3.his [11]) was “no binding (tested: 10 ug/ml)”. The binding result (HSA. [12]) was “no binding (tested: 10 ug/ml)” and the EC50 [13] was 76.7 nM.
